The text below walks through data of patent publication US20220259318A1 (Hoffmann-La Roche, published 2022).

Assay [1] addresses T1, BCMA (UniProt Q02223 1-184, limits assumed).
T1 sequence (looked up): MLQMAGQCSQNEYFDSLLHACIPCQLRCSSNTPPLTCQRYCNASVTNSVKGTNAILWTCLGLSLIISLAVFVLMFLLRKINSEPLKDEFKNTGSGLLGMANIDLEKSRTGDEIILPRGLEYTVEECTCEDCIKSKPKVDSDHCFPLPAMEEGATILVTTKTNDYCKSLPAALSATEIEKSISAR
Briefly: cell-based or functional assay.

Assay [2] addresses T1, BCMA. Briefly: cell-based or functional assay. This is another data set of the same source.
Assay [3] has as its target T1, BCMA. The assay is described as follows: cell-based or functional assay. This is another data set of the same source.
The target of assay [4] is T1, BCMA. The assay is described as follows: cell-based or functional assay. The source holds these as a separate data set.
The target of a further assay is T2, cynomolgus GPRC5D (cynomolgus).
T2 construct: whole, on cells; also called cyno GPRC5D; CHO cy GPCR5D
Briefly: cell ELISA, CHO cells stably expressing cynomolgus GPRC5D. As to the method:
(§1) Stable transfected CHO clones expressing either human GPRCSD or cynomolgus GPRCSD or murine GPRCSD or human GPRCSA were used to analyze the binding of potential lead candidate antibodies as IgGs. In detail, 10⁴ cells (viability≥98%) were seeded into 384 well-microtiter plates (BD Poly D-Lysin, #356662, volume: 25 μl/well) using fresh culture medium. After overnight incubation at 37° C., 25 μl/well dilutions of antibodies were added (15×1:3 dilutions in 1×PBS, assay conc. starts at 30 μg/ml) to the cells for 2 hours at 4° C. After one washing step using 90 μl/well PBST (10×PBS, Roche, #11666789001+0.1% Tween 20), cells were subsequently fixed by the addition of 50 μl/well 0.05% glutaraldehyde (Sigma Cat. No: G5882 in 1×PBS) for 10 min at room temperature (RT). After three additional washing steps using 90 μl/well PBST, secondary antibodies were added for detection: for human antibodies goat anti-human Ig a chain antibody HRP conjugate (Millipore #AP502P) diluted 1:2000 in blocking buffer (1×PBS (Roche #11666789001)+2% BSA (Bovine Serum Albumin Fraction V, fatty acid free, Roche, #10735086001)+0.05% Tween 20) was used (25 μl/well). […] After incubation for 1 h at RT and three additional washing steps using 90 μl/well PBST, 25 μl/well TMB substrate was added (Roche order no. 11835033001) for 10 min and color development to final ODs was determined by measurement at 370 nm/492 nm.

In a further assay the target is T3, murine GPRC5D (murine, UniProt Q9JIL6 1-344).
T3 construct: whole, on cells
T3 sequence (looked up): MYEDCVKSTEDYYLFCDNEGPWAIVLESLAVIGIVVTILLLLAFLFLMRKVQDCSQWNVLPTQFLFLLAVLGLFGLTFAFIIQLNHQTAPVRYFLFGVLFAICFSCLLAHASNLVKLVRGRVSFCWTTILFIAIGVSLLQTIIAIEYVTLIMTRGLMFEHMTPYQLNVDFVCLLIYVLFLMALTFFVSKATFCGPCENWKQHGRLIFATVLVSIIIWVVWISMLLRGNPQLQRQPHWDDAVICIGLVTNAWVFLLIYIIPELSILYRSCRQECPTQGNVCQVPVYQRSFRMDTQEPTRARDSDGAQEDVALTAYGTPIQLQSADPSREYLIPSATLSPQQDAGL
Briefly: cell ELISA on stably transfected CHO cells. How it is done:
as §1
(§2) Cynomolgus crossreactivity was also detected for all other antibodies but at lower levels compared to 10B10 and 07A04 (FIG. 9). No significant binding to CHO cells expressing murine GPRC5D and no binding to CHO cells expressing the human version of GPRC5A was detected (FIG. 9).
In general terms: In an ELISA, binding on a coated surface is turned into a signal by an enzyme label.

The target in a further assay is T4, human GPRC5A (human, UniProt Q8NFJ5 1-357).
T4 construct: whole, on cells; also called hu GPCR5A; GPRCSA
The assay is described as follows: cell ELISA on stably transfected CHO cells. As to the method:
as §1, §2

A further assay addresses T5, human GPRC5D (human, UniProt Q9NZD1 1-345).
T5 construct: also called G protein-coupled receptor class C group 5 member D; hu GPCR5D
Briefly: cell ELISA, CHO cells stably expressing human GPRC5D. How it is done: as §1

“And” between values parts separate entries of the source, which are not always exact repeats. Equal entries are not always repeated.

T5 sequence (Q9NZD1 whole entry): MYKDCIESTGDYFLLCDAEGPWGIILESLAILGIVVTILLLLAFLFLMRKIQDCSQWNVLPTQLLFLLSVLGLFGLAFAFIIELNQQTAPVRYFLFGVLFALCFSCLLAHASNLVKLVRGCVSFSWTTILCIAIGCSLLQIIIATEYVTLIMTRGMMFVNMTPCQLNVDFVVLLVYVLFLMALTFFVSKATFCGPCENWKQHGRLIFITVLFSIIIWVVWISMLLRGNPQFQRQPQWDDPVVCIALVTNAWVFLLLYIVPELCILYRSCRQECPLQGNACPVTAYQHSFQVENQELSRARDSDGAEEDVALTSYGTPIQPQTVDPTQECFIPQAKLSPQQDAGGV
T4 sequence (Q8NFJ5 whole entry): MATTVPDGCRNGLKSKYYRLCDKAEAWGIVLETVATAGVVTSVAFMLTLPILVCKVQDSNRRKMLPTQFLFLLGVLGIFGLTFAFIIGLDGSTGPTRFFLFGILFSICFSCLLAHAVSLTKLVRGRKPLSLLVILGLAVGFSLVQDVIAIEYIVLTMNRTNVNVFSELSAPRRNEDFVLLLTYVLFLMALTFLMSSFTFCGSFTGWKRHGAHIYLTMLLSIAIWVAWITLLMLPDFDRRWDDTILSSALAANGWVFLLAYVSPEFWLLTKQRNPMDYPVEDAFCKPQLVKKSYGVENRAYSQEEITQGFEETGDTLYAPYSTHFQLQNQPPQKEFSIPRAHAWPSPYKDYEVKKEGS

B1: BCMA-TCB (bispecific antibody, human IgG1, kappa, L234A L235A)
light 1: EIVLTQSPGTLSLSPGERATLSCRASQSVSAYYLAWYQQKPGQAPRLLMYDASIRATGIPDRFSGSGSGTDFTLTISRLEPEDFAVYYCQQYERWPLTFGQGTKVEIKRTVAAPSVFIFPPSDRKLKSGTASVVCLLNNFYPREAKVQWKVDNALQSGNSQESVTEQDSKDSTYSLSSTLTLSKADYEKHKVYACEVTHQGLSSPVTKSFNRGEC
light 2: EVQLLESGGGLVQPGGSLRLSCAASGFTFSTYAMNWVRQAPGKGLEWVSRIRSKYNNYATYYADSVKGRFTISRDDSKNTLYLQMNSLRAEDTAVYYCVRHGNFGNSYVSWFAYWGQGTLVTVSSASVAAPSVFIFPPSDEQLKSGTASVVCLLNNFYPREAKVQWKVDNALQSGNSQESVTEQDSKDSTYSLSSTLTLSKADYEKHKVYACEVTHQGLSSPVTKSFNRGEC
heavy 1: EVQLLESGGGLVQPGGSLRLSCAASGFTFSSYAMNWVRQAPGKGLEWVSAITASGGSTYYADSVKGRFTISRDNSKNTLYLQMNSLRAEDTAVYYCARYWPMSLWGQGTLVTVSSASTKGPSVFPLAPSSKSTSGGTAALGCLVEDYFPEPVTVSWNSGALTSGVHTFPAVLQSSGLYSLSSVVTVPSSSLGTQTYICNVNHKPSNTKVDEKVEPKSCDKTHTCPPCPAPEAAGGPSVFLFPPKPKDTLMISRTPEVTCVVVDVSHEDPEVKFNWYVDGVEVHNAKTKPREEQYNSTYRVVSVLTVLHQDWLNGKEYKCKVSNKALGAPIEKTISKAKGQPREPQVCTLPPSRDELTKNQVSLSCAVKGFYPSDIAVEWESNGQPENNYKTTPPVLDSDGSFFLVSKLTVDKSRWQQGNVFSCSVMHEALHNHYTQKSLSLSPGK
heavy 2: not shown
Take B1: in the assay with BCMA [1], the “AUC, TCB-mediated tumor cell lysis, AMO-1” value was found to be 4.73e+07; the “AUC, TCB-mediated tumor cell lysis, IM-9” value was determined as 1.1e+07; the “AUC, TCB-mediated tumor cell lysis, LP-1” value was 1.11e+07; the “AUC, TCB-mediated tumor cell lysis, NCI-H929” value came out at 1.07e+07. Besides, the “EC50 (pM), activation of autologous T-cells (CD69 on CD8 T cells) with a primary MM sample” value with BCMA [2] came out at 52.5 pM. In addition, in the assay with BCMA [3], the “EC50 (pM), TCB-mediated tumor cell lysis, AMO-1” value is 137 pM; the “EC50 (pM), TCB-mediated tumor cell lysis, IM-9” value stood at 55.7 pM; the “EC50 (pM), TCB-mediated tumor cell lysis, LP-1” value turned out to be 76.4 pM; the “EC50 (pM), TCB-mediated tumor cell lysis, NCI-H929” value was determined as 171 pM. In addition, in the assay with BCMA [4], the “EC50 in vitro killing assay, AMO-1” value was determined as 0.518 nM; the “EC50 in vitro killing assay, EJM” value was 0.132 nM; the “EC50 in vitro killing assay, L363” value stood at 0.127 nM; the “EC50 in vitro killing assay, MOLP-2” value stood at 0.032 nM. Further, in the assay with BCMA [4], the “EC50 in vitro killing assay, NCI-H929” value was 0.311 nM; the “EC50 in vitro killing assay, OPM-2” value turned out to be 0.033 nM; the “EC50 in vitro killing assay, RPMI” value was determined as 0.011 nM.

B2: 07A04 IgG (antibody, V domains shown)
VH: QVTLKESGPGILQPSHTLSLTCSFSGFSLSTYGMGVNWIRQPSGKGLEWLASIWWNGNTYNNPSLKSRLTVSKDTSNNQAFLKVTSVDTADTATYYCVHTRGIIRGRGLFFDYWGQGVMVTVSS
VL: DVQMTQSPYNLAASPGESVSINCKASKSISKYLAWYQQKPGKANKLLIYDGSTLQSGIPSRFSGSGSGTDFTLTIRSLEPEDFGLYYCQQHNEYPLTFGSGTKLEIKR
notes: the format as tested is not certain
The term EC50 denotes the concentration giving half of the maximal effect. Lower therefore signals a more potent agent. Regarding B2, the EC50 with cynomolgus GPRC5D is 0.115 µg/mL and 0.764 nM; with human GPRC5D, 0.0243 µg/mL and 0.162 nM. For the same molecule, the binding result with murine GPRC5D and with human GPRC5A was “no binding (tested: assay conc. starts at 30 µg/ml)” in each case.

B3: 10B10 IgG (antibody, V domains shown)
VH: EVQLVESGGGLVQPGRSMKLSCAASGFTFTNFYMAWVRQAPTKALEWVASINTGGGYTYYRDSVKGRFTVSRDNTRSTLYLQMDSLRSEETATYYCARHLTYYGRYYYFDYWGQGVMVTVSS
VL: DIQLTQSPHSLSASLGETVSIECLASEGISNYLAWFHQKPGKSPQLLIYYASSLQDGVPSRFSGSGSGTQYSLKISNMQPEDEGVYYCQQGYKYPLTFGSGTKLEIK
Regarding B3, the EC50 is 0.012 µg/mL and 0.08 nM in the assay with cynomolgus GPRC5D; 0.0163 µg/mL and 0.109 nM in the assay with human GPRC5D. Besides, the binding result with murine GPRC5D and with human GPRC5A was “no binding (tested: assay conc. starts at 30 µg/ml)” in each case.
